# In publication PMC8552724:
# System: T1, AbrB (Bacillus thuringiensis (HD73?)), ORF:5acdf31f
# T1 sequence: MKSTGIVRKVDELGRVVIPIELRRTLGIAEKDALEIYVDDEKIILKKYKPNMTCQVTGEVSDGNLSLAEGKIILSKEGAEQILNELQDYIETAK
# Test: EMSA
sequence,measurement,value
CATCCGTTAAAGGAAGCATGAATTAGTAATGAATTTGCAATTTCGATAAAAGTTTGTAATATTTCATTTTATGGACATACTTCATCTAGATCACTTTGTAATAGAATATTTCCTTTTATATACAATTAAACCACATTTATCCTTCGTGAAATGTTTATATATTAAATAATATAAAAAAATATAGGGTGTTATAATTAATTCGAAAACGTTTACAAAAAGAATGATGGAGGGATAATT (double strand) [Psip1Ab1-S (-201 to +36)],binding,binds
